In PMC11735997:

Biological target: Trichoplusia ni acetyl-coenzyme A carboxylase (Trichoplusia ni (endogenous in T. ni cells))
Assay: cryo-EM structure; endogenous T. ni ACC (~2 uM) in 25 mM Hepes pH 8.0, 150 mM NaCl, 1 mM TCEP; refined with C2 symmetry to 3.12 Å; only the CT domain (1622-2396) modelled

## Trichoplusia ni acetyl-coenzyme A carboxylase
  stoichiometry N: 2
